Reference: patent publication US20080201790A1, “Method and product for regulating cell responsiveness to external signals” (priority 1993, published 2008)

T1: JNKK (Homo sapiens, UniProt P45985)
T1 sequence (P45985 1-399): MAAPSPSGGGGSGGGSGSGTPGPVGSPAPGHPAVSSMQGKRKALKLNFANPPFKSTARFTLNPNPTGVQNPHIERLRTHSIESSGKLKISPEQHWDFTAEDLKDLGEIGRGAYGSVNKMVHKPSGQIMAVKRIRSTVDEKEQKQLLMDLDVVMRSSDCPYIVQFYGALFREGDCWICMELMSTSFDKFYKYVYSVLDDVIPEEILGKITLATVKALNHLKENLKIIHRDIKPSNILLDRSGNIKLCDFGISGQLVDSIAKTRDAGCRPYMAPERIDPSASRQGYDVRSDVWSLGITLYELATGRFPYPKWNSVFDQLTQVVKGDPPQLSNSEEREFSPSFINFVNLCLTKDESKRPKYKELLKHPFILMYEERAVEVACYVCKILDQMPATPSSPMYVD

B1: MEKK 2: 619-amino acid MEK kinase protein, SEQ ID No. 6 / 8 (protein)
chain: MGYPYDVPDYASDDQQALNSIMQDLAVLHKPVGQHYLYKKPGKQNLHHQKNRMMFESNLNIEEEKRILQVTRPVKLEDLRSKSKIAFGQSMDLHYTNNELVIPLTTQDDLDKAVELLDRSIHMKSLKILLVVNGSTQATNLEPSPSPEDLNNTPLGAERKKRLSVVGPPNRDRSSPPPGYIPDILHQIARNGSFTSINSEGEFIPESMDQMLDPLSLSSPENSGSGSCPSLDSPLDGESYPKSRMPRAQSYPDNHQEFTDYDNPIFEKFGKGGTYPRRYHVSYHHQEYNDGRKTFPRARRTQGTSFRSPVSFSPTDHSLSTSSGSSVFTPEYDDSRIRRRGSDIDNPTLTVTDISPPSRSPRAPTNWRLGKLLGQGAFGRVYLCYDVDTGRELAVKQVQFNPESPETSKEVNALECEIQLLKNLLHERIVQYYGCLRDPQEKTLSIFMELSPGGSIKDQLKAYGALTENVTRKYTRQILEGVHYLHSNMIVHRDIKGANILRDSTGNIKLGDFGASKRLQTICLSGTGMKSVTGTPYWMSPEVISGEGYGRKADIWSVACTVVEMLTEKPPWAEFEAMAAIFKIATQPTNPKLPPHVSDYTRDFLKRIFVEAKLRPSAEELLRHMFVHYH
B2: MEKK 3: 626-amino acid MEK kinase protein, SEQ ID No. 10 (protein, listed as Mus musculus)
chain: MDEQEALDSIMKDLVALQMSRRTRLSGYETMKNKDTGHPNRQSDVRIKFEHNGERRIIAFSRPVRYEDVEHKVTTVFGQPLDLHYMNNELSILLKNQDDLDKAIDILDRSSSMKSLRILLLSQDRNHTSSSPHSGVSRQVRIKPSQSAGDINTIYQAPEPRSRHLSVSSQNPGRSSPPPGYVPERQQHIARQGSYTSINSEGEFIPETSEQCMLDPLSSAENSLSGSCQSLDRSADSPSFRKSQMSRARSFPDNRKECSDRETQLYDKGVKGGTYPRRYHVSVHHKDYNDGRRTFPRIRRHQGNLFTLVPSSRSLSTNGENMGVAVQYLDPRGRLRSADSENALTVQERNVPTKSPSAPINWRRGKLLGQGAFGRVYLCYDVDTGRELASKQVQFDPDSPETSKEVSALECEIQLLKNLQHERIVQYYGCLRDRAEKILTIFMEYMPGGSVKDQLKAYGALTESVTRKYTRQILEGMSYLHSNMIVHRDIKGANILRDSAGNVKLGDFGASKRLQTICMSGTGIRSVTGTPYWMSPEVISGEGYGRKADVWSLGCTVVEMLTEKPPWAEYEAMAAIFKIATQPTNPQLPSHISEHGRDFLRRIFVEARQRPSAEELLTHHFAQLVY

Experiments:
p38 = p38 kinase activity in HEK293 cells transfected with MEKK 2 or 3; type: cell-based; conditions: immunoprecipitation and in vitro kinase assay
Description: The p38 kinase is activated by hyperosmotic conditions and recognizes the transcription factor ATF 2 as an in vitro substrate. Sorbitol treated (0.4M, 20 min) or control HEK293 cells were lysed in the same buffer as that used for immunoprecipitation of p38 using rabbit antiserum raised against the COOH terminal peptide sequence of p38. Immunoprecipitates were washed once in lysis buffer, once in assay buffer (25 mM Hepes, pH 7.4, 25 mM β-glycerophosphate, 25 mM […], 2 mM dithiothreitol, 0.1 mM sodium vanadate) resuspended, and used in an in vitro kinase assay with a recombinant NH2-terminal fragment of ATF 2 (20-50 ng). For analysis of p38 kinase activity from Mono Q FPLC fractions, 20 ul aliquots were mixed with kinase buffer containing 20-50 ng of recombinant ATF 2 and 10 uCi of [γ32P]PATP. Reactions were quenched in Laemmli sample buffer, boiled, and proteins were resolved using SDS 10% PAGE. […] Mono Q FPLC fractionation of lysates from MEKK 2 or 3 transfected HEK293 cells confirmed that p38 kinase activity was similar to that from control transfected cells. ATF 2 is also a substrate for JNK. Fractions 2-8 from cells transfected with MEKK 2 or 3, that contain immunoreactive JNK, have increased kinase activity toward ATF 2. This is a predicted result based on the ability of both MEKK 2 and 3 to stimulate JNK activity in HEK293 cells. […]

MEK 1 = target: T2, MEK 1 (Mus musculus, UniProt P31938); assay: In vitro kinase assay of immunoprecipitated HA-tagged MEKK with recombinant MEK1; type: biochemical; conditions: 12CA5 immunoprecipitates
T2 construct: polyhistidine (N); made in house; host or cells: pRSETA vector
Description: (§1) MEKK 2 Phosphorylates Both MEK 1 and JNK Kinase in Vitro. HEK293 cells expressing MEKK 2 and 3 were lysed in !% Triton x-100, 0.5% Nonidet P-40, 20 mM Tris HCL, pH 7.5, 150 mM NaCl, 20 mM NaF, 0.2 mM sodium vanadate, 1 mM EDTA, […], 1 mM EGTA, 5 mM PMSF. Nuclei were removed by centrifugation at 15,000×g for 5 min. HA epitope-tagged MEKK2 and 3 were immunoprecipitated with the 12CA5 antibody recognizing the HA epitope-tag. The immunoprecipitates were washed twice in lysis buffer, twice in PAN (10 mM Pipes, pH 7.0, 100 mM NaCl, 20 ug/ml aprotinin), suspended in 20 mM Pipes, 10 mM MnCl2, 20 ug/ml aprotinin, and used in an in vitro kinase assay with 20-50 ng of recombinant MEK1 or JNKK as substrates and 20 uCi of [γ^32P]ATP. Reactions were terminated by the addition of Laemmli sample buffer, boiled, and proteins were resolved by SDS-10% PAGE.

p42/44 MAPK = p42/44 MAPK activity in HEK293 cells transfected with MEKK 2 or 3; type: cell-based; conditions: transient expression in HEK293 cells
Description: MAPK activity following Mono Q FPLC fractionation was measured using the epidermal growth factor receptor […] peptide as a selective p42/44 MAPK substrate. Alternatively, for cells transfected with varying amounts of MEKK plasmids, MAPK activity was assayed after elution from DEAE Sephacel columns. […] Thus, even though the kinase domains are approximately 94% conserved, MEKK 2 and 3 differ in their selectivity for regulation of the JNK and p42/44^MAPK pathways. This was particularly evident for MEKK 3 at low plasmid concentrations where the p42/44^MAPK pathway was preferentially activated.

JNKK = target: T1, JNKK; assay: In vitro kinase assay of immunoprecipitated HA-tagged MEKK with recombinant JNKK; type: biochemical; conditions: 12CA5 immunoprecipitates
Description: as §1
Incubations were for 30 min at 30° C. in the presence of 50 uM ATP. GST-cJun (1-79) Sepharose beads were then added, and the mixture was rotated at 4° C. for 30 min. The beads were washed, suspended in 40 ul of c-Jun kinase assay buffer containing 20 uCi of [γ32P]ATP, and incubated for 15 min at 30° C. Reaction mixtures were added to Laemmli sample buffer, boiled, and phosphorylated proteins were resolved on SDS 10% PAGE.

c-Jun kinase (JNK) = assay: JNK activity in HEK293 cells transfected with MEKK 2 or 3; type: cell-based; conditions: for selectivity in activating JNK versus p42/44 MAPK: plasmid DNAs titrated over a range of concentrations; for c-Jun kinase (JNK) activity: transient expression in HEK293 cells
Description: JNK activity was measured using GSTc-Jun1-79) coupled to glutathione Sepharose 4B. Cells transfected with MEKK2 or 3 and control transfected cells were lysed in 0.5% Nonidet P-40, 20 mM Tris HCl, pH 7.6, 0.25 M NaCl, 3 mM EDTA, 3 mM EGTA, 1 mM dithiothreitol, 1 mM PMSFm 2 mM sodium vanadate, 20 ug/ml aprotinin, and 5 ug/ml leupeptin. Nuclei were removed by centrifugation at 15,000×g for 10 min and the supernatants (25 ug of protein) were mixed with 10 ul of a slurry of GST c-Jun(1-79) Sepharos (3-5 ug of GST cJun(1-79). The mixture was rotated at 4° C. for 1 h, washed twice in lysis buffer and once in kinase buffer (20 mM Hepes, pH 7.5, 10 mM MgCl2, 20 mM β-glycerophosphate, 10 mM p-nitrophenyl phosphate, 1 mM dithiothreitol, 50 uM sodium vanadate). Beads were suspended in 40 ul of kinase assay buffer containing 10 uCi of [γ32P]ATP and incubated at 30° C. for 20 min. Reaction mixtures were added to Laemmli sample buffer, boiled, and phosphorylated proteins were resolved on SDS-10% polyacrylamide gels. The JNK activity also eluted early from a Mono Q column using a linear sodium chloride elution gradient. […] When JNK activity was assayed following fractionation by Mono Q ion exchange chromatography, 50 ul of each fraction was incubated with the GST cJun(1-79) beads.

c-Jun kinase = c-Jun kinase activation in transfected COS cells; type: cell-based; conditions: expression in COS cells, FIG. 22
Description: COS cells were transfected with pCMV5 expression plasmid encoding no cDNA insert (control), full length MEKK4 or the truncated MEKK4 encoding only the catalytic kinase domain.

[1] = test system: p42 and p44 forms of MAPK; assay: Phosphorylation of p42 and p44 MAPK in COS cells transfected with MEKK 1 or MEKK 3; type: cell-based; conditions: forty-eight hours after transfection
Description: (§2) COS cells were transfected with the expression plasmid pCVM5 ligated to cDNA clones encoding either MEKK 1 or MEKK 3 protein, or a control pCVM5 plasmid lacking MEKK cDNA inserts. Forty-eight hours after transfection, the COS cells were lysed and the lysate fractionated on a Mono Q FPLC column using conditions described in Example 4. The fractions were analyzed for tyrosine phosphorylation of MAP kinase-like enzymes using the kinase assay described in Example 4.

p38 MAPK = assay: Tyrosine phosphorylation of p38 MAPK in COS cells transfected with MEKK 1 or MEKK 3; type: cell-based; conditions: forty-eight hours after transfection
Description: as §2

| Molecule | p38 kinase activity (p38) | phosphorylation of MEK 1 in vitro (MEK 1) | p42/44 MAPK activity (p42/44 MAPK) | phosphorylation of JNKK in vitro (JNKK) | selectivity in activating JNK versus p42/44 MAPK (c-Jun kinase (JNK)) | c-Jun kinase (JNK) activity (c-Jun kinase (JNK)) | activation of the c-Jun kinase pathway (c-Jun kinase) | phosphorylation of p42 and p44 MAPK [1] | phosphorylation of p38 MAPK (p38 MAPK) |
| --- | --- | --- | --- | --- | --- | --- | --- | --- | --- |
| B1 | neither MEKK 2 nor MEKK 3 stimulated p38 kinase activity | clearly phosphorylates both MEK 1 and JNKK | stimulated p42/44^MAPK activity | clearly phosphorylates both MEK 1 and JNKK | greater selectivity for stimulation of the JNK pathway | stimulation of c-Jun kinase (JNK) activity | also activate the c-Jun kinase pathway | – | – |
| B2 | neither MEKK 2 nor MEKK 3 stimulated p38 kinase activity | did not show measurable kinase activity toward MEK 1 or JNKK | stimulated p42/44^MAPK activity | did not show measurable kinase activity toward MEK 1 or JNKK | greater selectivity for activating p42/44 MAPK relative to JNK | stimulation of c-Jun kinase (JNK) activity | also activate the c-Jun kinase pathway | induces tyrosine phosphorylation | induces tyrosine phosphorylation of p38 MAPK |
